From patent US20220313738A1 (NANJING LEGEND BIOTECH, published 2022)

Tests used:
Experiment in all cases: cell-based or functional assay
[1] = target: M666 (CD8α SP-BCMA scFv-CD8α hinge-CD8α TM-ISD)
[2] = target: M665 (CD8α SP-BCMA scFv-CD8α hinge-CD8α TM-ISD)
[3] = target: M663 (CD8α SP-BCMA scFv-CD8α hinge-CD8α TM-ISD)

Binder	relative ISD-modified CAR positive rate (FACS), day 3, against empty vector control [1]	relative ISD-modified CAR positive rate (FACS), day 3, against empty vector control [2]	relative ISD-modified CAR positive rate (FACS), day 3, against empty vector control [3]
wildtype SIV Nef (other) MGSSNSKRQQQGLLKLWRGLRGKPGADWVLLSDPLIGQSSTVQEECGKALKKSWGKGKMTPDGRRLQEGDTFDEWDDDEEEVGFPVQPRVPLRQMTYKLAVDFSHFLKSKGGLDGIYYSERREKILNLYALNEWGIIDDWQAYSPGPGIRYPRVFGFCFKLVPVDLHEEARNCERHCLMHPAQMGEDPDGIDHGEVLVWKFDPKLAVEYRPDMFKDMHEHAKR	57%	82.3%	46.7%
SIV Nef M116 (other) MGSSNSKRQQQGLLKLWRGLRGKPGADWVLLSDPLIGQSSTVQEECGKALKKSWGKGKMTPDGRRLQEGDTFDEWDDDEEEVGFPVQPRVPLRQMTYKLAVDFSHFLKSKGGLDGIYYSERREKILNLYALNEWGIIDDWQAYSPGPGIRYPRVFGFCFKLVPVDLHEEARNCERHCAAHPAQMGEDPDGIDHGEVLVWKFDPKLAVEYRPDMFKDMHEHAKR	56.2%	70.3%	50.9%
